From patent US20020151680A1 (VEGENICS, published 2002)

T1: VEGFR-3-Fc (UniProt P35916 25-329)
T1 construct: domain: first three Ig domains; used as conditioned supernatant of 293T cells; also called VEGFR-3-Fc fusion protein; not shown: Fc fragment of the pIg vector
T1 sequence (looked up): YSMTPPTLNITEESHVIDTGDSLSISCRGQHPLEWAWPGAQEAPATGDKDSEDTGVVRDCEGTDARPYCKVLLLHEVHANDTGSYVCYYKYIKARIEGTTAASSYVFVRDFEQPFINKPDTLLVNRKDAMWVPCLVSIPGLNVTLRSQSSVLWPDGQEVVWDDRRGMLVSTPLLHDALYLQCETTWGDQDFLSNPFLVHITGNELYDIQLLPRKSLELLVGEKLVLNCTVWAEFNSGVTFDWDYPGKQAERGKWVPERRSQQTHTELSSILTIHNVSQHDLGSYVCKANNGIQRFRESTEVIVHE

B1: 31-11 (ligand)
chain: GQNHHEVVKSIDNEWRKTQCMPIETLVDIFQEYPDEIEYIFKPSCVPLMRCGGCCNSEGLQCVPTEESNITMQIMRITVPLSQGPKPVTISFLQHNKCECRPKKDLVFEQKLISEEDLNSAVDHHHHHH
B2: 31-6 (ligand)
chain: GQNHHEVVKSIDNEWRKTQCMPIETLVDIFQEYPDEIEYIFKPSCVPLMRCGGCCNDEGLECMNTSTSYLSKTLFEIKPHQGQHIGEMSFANHTSCRCMSKLDLVFEQKLISEEDLNSAVDHHHHHH
B3: 31-1 (ligand)
chain: GQNHHEVVKSIDNEWRKTQCMPIETLVDIFQEYPDEIEYIFKPSCVPLMRCGGCCNDEGLECVPTEESNITMQIMRIKPHQGQHIGEMSFLQHNKCECRPKKDLVFEQKLISEEDLNSAVDHHHHHH
B4: 12-16 (ligand)
chain: GQNHHEVVKFMDVYQRSYCHPIETLVDIFQEFGVATNTFFKPPCVSVYRCGLLQ

Target: T1, VEGFR-3-Fc
Assay: 35S IP, receptor-Fc
Method: (§1) The binding assay procedure was identical to the immunoprecipitation using pentahistidine antibody described in Example 2, apart from the composition of the immunoprecipitation (IP) mixes. The IP mixes used for the receptor binding analysis were as follows: For VEGFR- 1 binding assays, the IP mix was phosphate buffered saline (PBS) containing 1.5% BSA, 0.06% Tween 20, 3 μg/ml heparin and 400 ng/ml VEGFR-1 -Fc fusion protein (100 μl of this IP mix was added to 200 μl of sample supernatant); for VEGFR-2 binding assays, the IP mix was 82% conditioned cell supernatant from 293T cells transiently expressing VEGFR-2-Fc fusion protein in mixture with 18% of a PBS solution that contained 5% BSA, 0.2% Tween 20, and 10 μg/ml heparin (250 μl of IP mix was added to 200 μl of sample supernatant); and for VEGFR-3 binding assays, the IP mix was 82% conditioned cell supernatant from 293T cells transiently expressing VEGFR-3-Fc fusion protein, 18% of PBS containing 5% BSA, 0.2% Tween 20, and 10 μg/ml heparin (250 μl of IP mix was added to 200 μl of sample supernatant).

binding result	Binder
no binding	B1
no binding	B2
no binding	B3

Target: T2, VEGFR-2-Fc (UniProt P35968 24-326)
T2 construct: domain: first 3 Ig domains; used as conditioned supernatant of 293T cells; also called VEGFR-2-Fc fusion protein; not shown: Fc fragment of the pIg vector
Assay: 35S IP, receptor-Fc
Method: as §1

T2 sequence (P35968 24-326): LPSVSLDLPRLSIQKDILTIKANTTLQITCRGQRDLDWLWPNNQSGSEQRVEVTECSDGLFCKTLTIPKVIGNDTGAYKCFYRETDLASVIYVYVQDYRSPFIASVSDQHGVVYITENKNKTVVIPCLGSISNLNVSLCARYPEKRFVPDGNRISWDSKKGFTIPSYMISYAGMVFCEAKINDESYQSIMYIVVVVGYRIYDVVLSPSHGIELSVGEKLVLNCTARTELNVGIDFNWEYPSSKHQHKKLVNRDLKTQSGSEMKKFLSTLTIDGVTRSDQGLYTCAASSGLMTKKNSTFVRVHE

binding result	Binder
no binding	B1
no binding	B4
no binding	B2
no binding	B3

Target: T3, VEGFR-1-Fc (UniProt P17948 27-331)
T3 construct: domain: first three Ig domains; expressed in Drosophila S2 cells, purified on Protein A sepharose; also called VEGFR-1-Fc fusion protein; not shown: Fc fragment from the Signal-pIgPlus vector
Assay: 35S IP, receptor-Fc
Method: as §1

T3 sequence (P17948 27-331): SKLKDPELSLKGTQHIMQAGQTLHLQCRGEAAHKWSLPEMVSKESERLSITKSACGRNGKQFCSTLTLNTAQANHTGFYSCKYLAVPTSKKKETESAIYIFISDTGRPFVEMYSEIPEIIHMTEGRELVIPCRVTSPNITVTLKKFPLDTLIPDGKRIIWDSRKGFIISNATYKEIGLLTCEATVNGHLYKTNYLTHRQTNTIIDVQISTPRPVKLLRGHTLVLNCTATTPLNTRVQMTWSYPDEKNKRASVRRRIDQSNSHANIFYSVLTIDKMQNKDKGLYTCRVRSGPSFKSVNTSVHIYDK

binding result	Binder
no binding	B1
no binding	B4
no binding	B2
no binding	B3
